Source: the Human Domainome abundance scans (Beltran et al. 2025)

B1: Probable E3 ubiquitin-protein ligase MID2, residues 191 to 235; numbered along this chain, Q9UJV3 (parent)
chain: RGITCLDHENEKVNMYCVSDDQLICALCKLVGRHRDHQVASLNDR

Variants of: B1
Test: abundance fitness (aPCA) (normalised: wild type 0, dead -1); higher = more abundant; growth selection in yeast, the domain comes from the species named
Details: Homo sapiens

Abundance fitness of substitutions, site by site:
L30: F -0.022 | V 0.003 | T 0.089 | G 0.13 | K 0.348 | Y -0.071 | E 0.096 | H -0.012 | W -0.095 | A 0.159 | C 0.026 | N 0.078 | S 0.189 | D 0.183 | M 0.003 | P -0.136 | Q 0.109
Q22: R 0.1 | T -0.062 | E -0.113 | Y -0.264 | K 0.05 | I -0.259 | M 0.054 | D -0.19 | L -0.177 | V -0.012 | P -0.381 | W -0.515 | S 0.049
L23: P 0.144 | D 0.064 | H -0.074 | E 0.137 | R 0.023 | N 0.352 | S -0.009 | W -0.038 | K 0.213 | C 0.049 | T -0.046 | M 0.199 | V 0.006 | Q 0.099
E11: F -0.248 | P -0.838 | W -0.215 | Q -0.097 | C -0.063 | G -0.245 | L -0.524 | V -0.519 | I -0.334 | S -0.236 | A -0.177 | K -0.33 | R -0.171 | T -0.223 | M -0.174 | Y 0.129
N14: K 0.015 | M -0.487 | G -0.021 | A 0 | H 0.117 | P -0.434 | E 0.104 | S 0.06 | L -0.124 | V -0.055 | T 0.049 | R -0.087 | W -0.482 | Q 0.119 | C -0.204 | D -0.132
D21: L -0.526 | Y -0.527 | I -0.951 | M -0.316 | T -0.163 | A -0.081 | S -0.088 | P -0.819 | K 0.011 | E -0.056 | H -0.283 | V -0.585 | Q -0.132 | N 0.031
K29: N 0.153 | I -0.037 | P -0.054 | V -0.149 | Q -0.016 | S 0.059 | Y -0.079 | R 0.07 | M -0.029 | H -0.032 | D -0.211 | W 0.018 | C -0.144 | F -0.132 | L -0.286 | E -0.039 | G 0.097 | A 0.063
C28: K -0.906 | E -0.897 | S -0.678 | D -0.469 | G -0.58 | M -0.942 | Q -0.505 | V -1.11 | W -0.997 | P -0.439 | T -0.541 | R -1.05 | A -0.805 | Y -1.14
C25: E -0.786 | A -1.12 | P -0.417 | G -0.805 | W -1.92 | L -1.34 | R -1.2 | Y -0.841 | V -1.03 | Q -1.02 | D -0.834 | S -1.03 | T -0.526 | K -0.951 | N -1.14 | F -0.468
Y16: C -0.176 | V 0.023 | H -0.114 | W -0.039 | N -0.251 | K 0.54 | R 0.183 | S -0.178 | A 0.077 | T -0.392 | Q 0.236 | G 0.024 | M -0.321 | D -0.067 | L -0.127 | P -0.065
V13: G -0.143 | S -0.092 | A -0.104 | I 0.1 | E -0.215 | T -0.179 | W -0.619 | R -0.077 | Q -0.047
M15: A 0.063 | G 0.081 | L 0.003 | K -0.176 | F -0.069 | V -0.277 | W 0.11 | R -0.118 | P -0.251 | C 0.259 | T -0.1 | D 0.001 | Q 0.166
L27: G -0.058 | Y -0.263 | V 0.039 | F 0.099 | P -0.215 | H -0.03 | K 0.517 | M -0.012 | N 0.311 | I -0.466 | E 0.144 | Q 0.263 | S 0.052 | W -0.145 | T -0.144 | D -0.029
E9: W -0.252 | L 0.032 | R -0.024 | T 0.151 | S -0.033 | K 0.073 | P 0.173 | Q 0.021 | M 0.022 | N 0.056 | V -0.299 | Y -0.051
K12: S 0.095 | W -0.229 | E 0.104 | I -0.244 | C -0.389 | D -0.012 | G -0.102 | A -0.095 | L -0.049 | V -0.083 | Q -0.103 | P 0.124 | R -0.042
C17: R -0.304 | Y -0.635 | E -0.163 | V -0.486 | G -0.129 | S -0.157 | T -0.269 | P -0.319 | K -0.01 | Q -0.369 | M -0.517 | L -0.775 | N -0.212 | W -0.792
I24: H -0.197 | T -0.122 | V 0.058 | R -0.373 | E -0.141 | M -0.104 | S -0.179 | G -0.269 | K -0.105 | Q -0.006 | A -0.104 | D -0.121 | P 0.196 | C -0.436
V31: M -0.104 | G 0.107 | K 0.131 | H 0.108 | L -0.122 | N 0.184 | D -0.022 | I -0.091 | E 0.149 | F -0.046
N10: W -0.394 | K -0.226 | T -0.26 | M -0.173 | S -0.156 | R -0.138 | V -0.416 | C -0.175 | L -0.102 | A -0.348 | D -0.072 | H -0.036 | G -0.198 | P -0.414 | Q -0.313 | I -0.176 | F -0.577 | E -0.55
V18: K 0.079 | R 0.056 | A 0.054 | N -0.125 | P -0.025 | T 0.2 | W -0.19 | F -0.112 | I -0.165 | S 0.027 | D 0.065 | L -0.024 | C 0.036 | G 0.011
S19: F -0.146 | T 0.049 | L -0.08 | D -0.18 | E 0.07 | M -0.067 | R -0.041 | Q 0.097 | W -0.211 | P -0.047 | V -0.032 | N -0.092 | A 0.107 | K -0.049 | G -0.005 | H 0.093 | Y -0.296
D20: M -1.19 | P -0.625 | C -0.178 | T -0.706 | A -0.77 | W -0.809 | V -1.03 | L -1.08 | G -0.589 | E -0.096 | Y -1.43 | K -0.357 | H -0.459 | N -0.456
A26: K -0.051 | M -0.359 | Q -0.017 | L -0.296 | P -0.018 | D 0.13 | I -0.621 | Y -0.092 | S -0.006 | T -0.068 | G 0.103 | R 0.006 | F -0.277 | E 0.031 | H -0.169 | V -0.174
